Test results taken from PMC9482650, “Quantitative fragmentomics allow affinity mapping of interactomes” (Nature Communications, 2022).

Tests used:
Test in all cases: holdup assay
Parameters in all cases: key: below the threshold = too weak to quantify, mostly under pKd 3.1 to 4
[1] = target: T1, PARD3B_1, Q8TEW8
T1 sequence (Q8TEW8 196-299, limits assumed, looked up): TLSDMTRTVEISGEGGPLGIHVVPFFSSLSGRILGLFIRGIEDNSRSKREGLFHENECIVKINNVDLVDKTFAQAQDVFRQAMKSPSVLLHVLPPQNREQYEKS

[2] = target: T2, SYNJ2BP, P57105
T2 sequence (P57105 8-110, limits assumed, looked up): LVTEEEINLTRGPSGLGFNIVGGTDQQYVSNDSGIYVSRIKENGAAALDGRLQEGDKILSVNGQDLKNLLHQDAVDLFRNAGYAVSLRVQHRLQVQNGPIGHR

[3] = target: T3, LIN7A, O14910
T3 sequence (O14910 103-200, limits assumed, looked up): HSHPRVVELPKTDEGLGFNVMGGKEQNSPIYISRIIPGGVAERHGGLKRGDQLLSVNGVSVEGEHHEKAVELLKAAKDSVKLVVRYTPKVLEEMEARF

[4] = target: T4, LRRC7, Q96NW7
T4 sequence (Q96NW7 1440-1537, limits assumed, looked up): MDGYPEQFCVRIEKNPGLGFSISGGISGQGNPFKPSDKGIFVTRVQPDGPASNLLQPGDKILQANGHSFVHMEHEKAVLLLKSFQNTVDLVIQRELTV

[5] = target: T5, SNTB1, Q13884
T5 sequence (Q13884 107-205, limits assumed, looked up): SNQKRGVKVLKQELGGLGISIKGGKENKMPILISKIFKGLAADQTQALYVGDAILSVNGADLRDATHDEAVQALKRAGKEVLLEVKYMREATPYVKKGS

[6] = target: T6, PCLO, Q9Y6V0
T6 sequence (Q9Y6V0 4491-4600, limits assumed, looked up): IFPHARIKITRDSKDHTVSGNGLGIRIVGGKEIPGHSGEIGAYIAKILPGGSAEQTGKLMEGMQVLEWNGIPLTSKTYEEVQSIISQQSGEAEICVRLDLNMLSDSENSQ

[7] = target: T7, MPDZ_5, O75970
T7 sequence (O75970 695-796, limits assumed, looked up): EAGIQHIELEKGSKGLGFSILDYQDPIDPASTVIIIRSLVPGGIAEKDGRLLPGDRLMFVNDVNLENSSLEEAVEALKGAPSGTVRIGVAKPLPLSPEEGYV

[8] = target: T8, RAPGEF6, Q8TEU7
T8 sequence (Q8TEU7 525-625, limits assumed, looked up): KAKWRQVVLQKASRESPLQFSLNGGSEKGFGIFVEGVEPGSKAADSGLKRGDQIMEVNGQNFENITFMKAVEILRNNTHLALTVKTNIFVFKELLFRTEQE

[9] = target: GOPC, Q9HD26
[10] = target: T9, PTPN13_1, Q12923
T9 sequence (Q12923 1088-1188, limits assumed, looked up): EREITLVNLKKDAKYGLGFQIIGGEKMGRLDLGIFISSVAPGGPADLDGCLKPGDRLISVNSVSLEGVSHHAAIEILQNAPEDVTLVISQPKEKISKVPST

[11] = target: Inadl_10, Q8NI35
[12] = target: T10, PDZD7_3, Q9H5P4
T10 sequence (Q9H5P4 857-944, limits assumed, looked up): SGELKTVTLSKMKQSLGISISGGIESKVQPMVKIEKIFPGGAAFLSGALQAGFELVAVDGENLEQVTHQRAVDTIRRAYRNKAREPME

[13] = target: GRID2IP_1, A4D2P6
[14] = target: GRIP2_7, Q9C0E4
[15] = target: T11, ARHGAP21, Q5T5U3
T11 sequence (Q5T5U3 45-169, limits assumed, looked up): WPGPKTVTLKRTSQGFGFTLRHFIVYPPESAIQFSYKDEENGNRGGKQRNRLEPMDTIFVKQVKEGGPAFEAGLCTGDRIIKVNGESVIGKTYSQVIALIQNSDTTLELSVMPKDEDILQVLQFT

[16] = target: GIPC2, Q8TF65
[17] = target: DLG2_2, Q15700
[18] = target: T12, SIPA1L2, Q9P2F8
T12 sequence (Q9P2F8 945-1036, limits assumed, looked up): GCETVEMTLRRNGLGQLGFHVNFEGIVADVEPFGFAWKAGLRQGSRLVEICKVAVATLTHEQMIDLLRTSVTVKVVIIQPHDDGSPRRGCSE

[19] = target: DLG1_2, Q12959
[20] = target: DLG2_3, Q15700
[21] = target: DLG4_3, P78352
[22] = target: DLG1_3, Q12959
[23] = target: FRMPD2_2, Q68DX3
[24] = target: HTRA1, Q92743
[25] = target: GRIP2_3, Q9C0E4
[26] = plain residues with an end cap or a label only (N-terminal biotin on a linker: ahx)
[27] = plain residues with an end cap or a label only (N-terminal biotin on a linker: gsgsgs; C-terminal amide)
[28] = plain residues with an end cap or a label only (N-terminal biotin on a linker: ttds)

Sequence of GRIP2_3, Q9C0E4 (Q9C0E4 238-339): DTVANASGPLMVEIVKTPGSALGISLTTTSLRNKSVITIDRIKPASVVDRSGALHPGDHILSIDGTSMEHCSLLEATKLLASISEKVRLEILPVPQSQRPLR
Sequence of GRIP2_7, Q9C0E4 (Q9C0E4 934-1023): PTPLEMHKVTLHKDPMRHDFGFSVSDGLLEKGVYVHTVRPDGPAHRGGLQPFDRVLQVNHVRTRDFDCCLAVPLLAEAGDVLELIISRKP
Sequence of GIPC2, Q8TF65 (Q8TF65 112-203): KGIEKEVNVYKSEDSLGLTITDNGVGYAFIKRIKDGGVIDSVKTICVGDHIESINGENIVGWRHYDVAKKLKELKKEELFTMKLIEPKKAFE
Sequence of DLG1_3, Q12959 (Q12959 457-571): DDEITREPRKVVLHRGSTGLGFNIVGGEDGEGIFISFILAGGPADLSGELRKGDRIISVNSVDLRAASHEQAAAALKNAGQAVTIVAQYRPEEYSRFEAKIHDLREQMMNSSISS
Sequence of GRID2IP_1, A4D2P6 (A4D2P6 1-87): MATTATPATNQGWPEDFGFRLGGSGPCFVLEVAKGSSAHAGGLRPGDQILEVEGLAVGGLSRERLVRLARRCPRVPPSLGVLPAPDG
Sequence of HTRA1, Q92743 (Q92743 360-477): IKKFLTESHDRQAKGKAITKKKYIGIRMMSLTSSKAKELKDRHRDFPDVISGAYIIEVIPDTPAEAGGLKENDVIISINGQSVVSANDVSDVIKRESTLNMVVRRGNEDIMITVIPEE
Sequence of DLG1_2, Q12959 (Q12959 314-412): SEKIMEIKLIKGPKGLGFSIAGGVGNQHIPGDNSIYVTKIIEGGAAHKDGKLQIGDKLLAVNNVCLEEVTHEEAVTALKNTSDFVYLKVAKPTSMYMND
Sequence of Inadl_10, Q8NI35 (Q8NI35 1673-1763): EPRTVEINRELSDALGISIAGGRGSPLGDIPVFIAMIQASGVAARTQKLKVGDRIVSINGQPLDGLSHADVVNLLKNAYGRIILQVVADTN
Sequence of DLG4_3, P78352 (P78352 306-403): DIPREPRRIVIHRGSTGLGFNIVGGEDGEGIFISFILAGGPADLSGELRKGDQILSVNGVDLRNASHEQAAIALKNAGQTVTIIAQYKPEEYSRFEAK
Sequence of FRMPD2_2, Q68DX3 (Q68DX3 944-1038): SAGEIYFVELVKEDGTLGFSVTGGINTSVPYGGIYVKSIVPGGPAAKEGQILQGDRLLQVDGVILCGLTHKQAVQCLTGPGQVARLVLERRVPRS

B1: HPV49-L2, P36762 (peptide)
chain: RRRKRKRTYL
[1]; [26]
  pKd: 3.72
[2]; [26]
  pKd: below the threshold
[3]; [26]
  pKd: below the threshold
[4]; [26]
  pKd: below the threshold
[5]; [26]
  pKd: 3.58
[6]; [26]
  pKd: below the threshold
[7]; [26]
  pKd: below the threshold
[8]; [26]
  pKd: below the threshold
[9]; [26]
  pKd: 4.3
[10]; [26]
  pKd: below the threshold
[11]; [26]
  pKd: below the threshold
[12]; [26]
  pKd: 4.31
[13]; [26]
  pKd: below the threshold
[14]; [26]
  pKd: 3.68
[15]; [26]
  pKd: 3.6
[16]; [26]
  pKd: below the threshold
[17]; [26]
  pKd: 4.58
[18]; [26]
  pKd: below the threshold
[19]; [26]
  pKd: 3.82
[20]; [26]
  pKd: 3.54
[21]; [26]
  pKd: 4.26
[22]; [26]
  pKd: 3.65
[23]; [26]
  pKd: below the threshold
[24]; [26]
  pKd: 3.99
[25]; [26]
  pKd: below the threshold

B2: MLLT4_int, P55196 (peptide)
chain: YGIVQETTFDLGGDIH
[1]; [27]
  pKd: below the threshold
[2]; [27]
  pKd: below the threshold
[3]; [27]
  pKd: below the threshold
[4]; [27]
  pKd: below the threshold
[5]; [27]
  pKd: 3.53
[6]; [27]
  pKd: below the threshold
[7]; [27]
  pKd: below the threshold
[8]; [27]
  pKd: below the threshold
[9]; [27]
  pKd: below the threshold
[10]; [27]
  pKd: below the threshold
[11]; [27]
  pKd: below the threshold
[12]; [27]
  pKd: 4.9
[13]; [27]
  pKd: below the threshold
[14]; [27]
  pKd: below the threshold
[15]; [27]
  pKd: below the threshold
[16]; [27]
  pKd: below the threshold
[17]; [27]
  pKd: below the threshold
[18]; [27]
  pKd: below the threshold
[19]; [27]
  pKd: 4.06
[20]; [27]
  pKd: 3.77
[21]; [27]
  pKd: below the threshold
[22]; [27]
  pKd: below the threshold
[23]; [27]
  pKd: below the threshold
[24]; [27]
  pKd: below the threshold
[25]; [27]
  pKd: below the threshold

B3: DOCK4, Q8N1I0 (peptide)
chain: RPLPRKVSQL
[1]; [28]
  pKd: below the threshold
[2]; [28]
  pKd: 3.59
[3]; [28]
  pKd: below the threshold
[4]; [28]
  pKd: below the threshold
[5]; [28]
  pKd: 3.55
[6]; [28]
  pKd: below the threshold
[7]; [28]
  pKd: below the threshold
[8]; [28]
  pKd: below the threshold
[9]; [28]
  pKd: 4.03
[10]; [28]
  pKd: below the threshold
[11]; [28]
  pKd: below the threshold
[12]; [28]
  pKd: 4.5
[13]; [28]
  pKd: below the threshold
[14]; [28]
  pKd: below the threshold
[15]; [28]
  pKd: below the threshold
[16]; [28]
  pKd: below the threshold
[17]; [28]
  pKd: below the threshold
[18]; [28]
  pKd: below the threshold
[19]; [28]
  pKd: 3.94
[20]; [28]
  pKd: 4.17
[21]; [28]
  pKd: 3.69
[22]; [28]
  pKd: 3.84
[23]; [28]
  pKd: below the threshold
[24]; [28]
  pKd: below the threshold
[25]; [28]
  pKd: below the threshold

B4: PSCDBP, O60759 (peptide)
chain: RAVEEEESRF
[1]; [26]
  pKd: 4.06
[2]; [26]
  pKd: below the threshold
[3]; [26]
  pKd: below the threshold
[4]; [26]
  pKd: below the threshold
[5]; [26]
  pKd: below the threshold
[6]; [26]
  pKd: below the threshold
[7]; [26]
  pKd: below the threshold
[8]; [26]
  pKd: below the threshold
[9]; [26]
  pKd: below the threshold
[10]; [26]
  pKd: below the threshold
[11]; [26]
  pKd: below the threshold
[12]; [26]
  pKd: below the threshold
[13]; [26]
  pKd: below the threshold
[14]; [26]
  pKd: below the threshold
[15]; [26]
  pKd: below the threshold
[16]; [26]
  pKd: below the threshold
[17]; [26]
  pKd: below the threshold
[18]; [26]
  pKd: below the threshold
[19]; [26]
  pKd: below the threshold
[20]; [26]
  pKd: below the threshold
[21]; [26]
  pKd: below the threshold
[22]; [26]
  pKd: below the threshold
[23]; [26]
  pKd: below the threshold
[24]; [26]
  pKd: below the threshold
[25]; [26]
  pKd: below the threshold
